Data on one substance can be found in PMC3568127.

The experiment addresses NRP1 (neuropilin 1) expressed from an adenovirus on DU145 cells (UniProt O14786). The experiment can be described thus: cell based binding displacement assay (biotinylated ligand, streptavidin-HRP, A450); DU145 cells infected with Ad.NRP1 in 96-well plates; various concentrations of competitor then 1 nM bt-VEGF-A165; binding medium with or without 0.1% BSA; 2 h at room temperature; apparent affinity judged by IC50.

NRP1 (neuropilin 1) expressed from an adenovirus on DU145 cells, sequence (O14786 22-923): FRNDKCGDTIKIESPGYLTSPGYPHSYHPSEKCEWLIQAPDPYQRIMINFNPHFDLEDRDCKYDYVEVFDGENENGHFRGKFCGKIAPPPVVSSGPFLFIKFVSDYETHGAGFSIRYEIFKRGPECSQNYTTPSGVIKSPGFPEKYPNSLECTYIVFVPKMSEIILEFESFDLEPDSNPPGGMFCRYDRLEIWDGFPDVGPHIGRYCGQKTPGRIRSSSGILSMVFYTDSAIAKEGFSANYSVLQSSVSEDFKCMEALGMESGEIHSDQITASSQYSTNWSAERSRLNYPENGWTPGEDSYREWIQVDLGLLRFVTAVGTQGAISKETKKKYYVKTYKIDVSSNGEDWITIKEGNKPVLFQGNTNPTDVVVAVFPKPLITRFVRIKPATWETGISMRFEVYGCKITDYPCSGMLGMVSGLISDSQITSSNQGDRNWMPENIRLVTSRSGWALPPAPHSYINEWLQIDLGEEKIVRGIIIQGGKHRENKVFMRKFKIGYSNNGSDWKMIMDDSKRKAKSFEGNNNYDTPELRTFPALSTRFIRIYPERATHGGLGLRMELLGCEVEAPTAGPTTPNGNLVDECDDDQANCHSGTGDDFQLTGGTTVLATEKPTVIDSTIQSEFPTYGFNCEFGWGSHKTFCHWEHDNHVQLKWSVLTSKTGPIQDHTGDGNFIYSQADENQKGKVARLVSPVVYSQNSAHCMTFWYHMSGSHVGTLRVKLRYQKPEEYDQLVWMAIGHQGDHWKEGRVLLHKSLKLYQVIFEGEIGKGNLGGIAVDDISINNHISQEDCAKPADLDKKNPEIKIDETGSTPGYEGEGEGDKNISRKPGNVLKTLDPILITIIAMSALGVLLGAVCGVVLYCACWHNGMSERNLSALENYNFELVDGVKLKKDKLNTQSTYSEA

A word on the IC50: it is the concentration that inhibits the measured activity by half. “VEGF-A165-HBD (the forms of the cell based assay: with and without the His6-tag)”: the IC50 lay within 100 to 200 nM.
